Data published in patent US20190263934A1.

Tests used:
[1] = target: biotinylated human FcRn (hFcRn; p51 subunit residues 24-297 with C-terminal Avi-tag, β2-m residues 21-119) (human) (UniProt P55899); assay: Biacore SPR, human FcRn, pH 7.4, steady state
[2] = target: biotinylated human FcRn (hFcRn; p51 subunit residues 24-297 with C-terminal Avi-tag, β2-m residues 21-119) (human) (UniProt P55899); assay: Biacore SPR, Biotin CAPture of biotinylated human FcRn, pH 6.0
[3] = target: biotinylated human FcRn (hFcRn; p51 subunit residues 24-297 with C-terminal Avi-tag, β2-m residues 21-119) (human) (UniProt P55899); assay: Biacore SPR, human FcRn, pH 6.0 (column 'Affinity, pH 6.0 (nM)')
[4] = target: biotinylated human FcRn (hFcRn; p51 subunit residues 24-297 with C-terminal Avi-tag, β2-m residues 21-119) (human) (UniProt P55899); assay: Biacore SPR, Biotin CAPture, pH 7.4, 1000 nM antibody, steady state
[5] = target: biotinylated hFcRn (human) (UniProt P55899); assay: SPR Biacore, pH 6.0
rFcRn (rat) [6] = target: rFcRn (rat) (UniProt P13599); assay: SPR Biacore, pH 6.0
Target sequence in this assay (P13599 23-298 limits assumed, form in doubt, chain 1 of 2): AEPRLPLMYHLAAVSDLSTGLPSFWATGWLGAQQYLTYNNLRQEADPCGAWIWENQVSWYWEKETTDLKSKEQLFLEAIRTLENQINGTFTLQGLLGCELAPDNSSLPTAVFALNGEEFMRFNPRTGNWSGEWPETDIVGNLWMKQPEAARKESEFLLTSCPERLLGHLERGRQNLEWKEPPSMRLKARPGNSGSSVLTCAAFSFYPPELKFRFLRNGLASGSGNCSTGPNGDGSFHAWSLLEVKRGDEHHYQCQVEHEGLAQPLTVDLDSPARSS
Target sequence in this assay (P07151 21-119 limits assumed, form in doubt, chain 2 of 2, further chain): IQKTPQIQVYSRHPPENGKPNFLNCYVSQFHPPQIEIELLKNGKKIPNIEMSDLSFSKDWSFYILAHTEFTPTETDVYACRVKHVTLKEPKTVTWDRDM

[7] = target: biotinylated hFcRn (human) (UniProt P55899); assay: SPR Biacore, pH 7.4
rFcRn (rat) [8] = target: rFcRn (rat) (UniProt P13599); assay: SPR Biacore, pH 7.4
Target sequence in this assay (P13599 23-298 limits assumed, form in doubt, chain 1 of 2): as the sequence (P13599 23-298 limits assumed, form in doubt, chain 1 of 2) above
Target sequence in this assay (P07151 21-119 limits assumed, form in doubt, chain 2 of 2, further chain): as the sequence (P07151 21-119 limits assumed, form in doubt, chain 2 of 2, further chain) above

[9] = target: biotinylated hFcRn (human) (UniProt P55899); assay: SPR Biacore, pH 6.0; remark: listed apart in the source
[10] = target: biotinylated hFcRn (human) (UniProt P55899); assay: SPR Biacore, pH 7.4; remark: listed apart in the source
[11] = target: Human CD16a (FcγRIIIa) V158 with C-terminal HPC4 tag (human) (UniProt P08637); assay: SPR Biacore FcγRIIIa
rFcRn (rat) [12] = target: rFcRn (rat) (UniProt P13599); assay: BLI Octet, pH 6.0, purified antibody
Target sequence in this assay (P13599 23-298 limits assumed, form in doubt, chain 1 of 2): as the sequence (P13599 23-298 limits assumed, form in doubt, chain 1 of 2) above
Target sequence in this assay (P07151 21-119 limits assumed, form in doubt, chain 2 of 2, further chain): as the sequence (P07151 21-119 limits assumed, form in doubt, chain 2 of 2, further chain) above

[13] = target: biotinylated hFcRn (human) (UniProt P55899); assay: SPR Biacore, pH 7.4, 1000 nM antibody
rFcRn (rat) [14] = target: rFcRn (rat) (UniProt P13599); assay: SPR Biacore, pH 7.4, 1000 nM antibody
Target sequence in this assay (P13599 23-298 limits assumed, form in doubt, chain 1 of 2): as the sequence (P13599 23-298 limits assumed, form in doubt, chain 1 of 2) above
Target sequence in this assay (P07151 21-119 limits assumed, form in doubt, chain 2 of 2, further chain): as the sequence (P07151 21-119 limits assumed, form in doubt, chain 2 of 2, further chain) above

rFcRn (rat) [15] = target: rFcRn (rat) (UniProt P13599); assay: SPR Biacore, pH 6.0; remark: listed apart in the source
Target sequence in this assay (P13599 23-298 limits assumed, form in doubt, chain 1 of 2): as the sequence (P13599 23-298 limits assumed, form in doubt, chain 1 of 2) above
Target sequence in this assay (P07151 21-119 limits assumed, form in doubt, chain 2 of 2, further chain): as the sequence (P07151 21-119 limits assumed, form in doubt, chain 2 of 2, further chain) above

[16] = target: Human CD16a (FcγRIIIa) V158 with C-terminal HPC4 tag (human) (UniProt P08637); assay: SPR Biacore, captured FcγRIIIa-V158
[17] = target: biotinylated human FcRn (hFcRn; p51 subunit residues 24-297 with C-terminal Avi-tag, β2-m residues 21-119) (human) (UniProt P55899); assay: Biacore SPR, pH 6.0, apparent affinity
[18] = target: biotinylated human FcRn (hFcRn; p51 subunit residues 24-297 with C-terminal Avi-tag, β2-m residues 21-119) (human) (UniProt P55899); assay: Biacore SPR; second ratio column (inverse of c7)
[19] = target: biotinylated human FcRn (hFcRn; p51 subunit residues 24-297 with C-terminal Avi-tag, β2-m residues 21-119) (human) (UniProt P55899); assay: Biacore SPR, pH 7.4, steady state, 1000 nM antibody
[20] = target: biotinylated human FcRn (hFcRn; p51 subunit residues 24-297 with C-terminal Avi-tag, β2-m residues 21-119) (human) (UniProt P55899); assay: Biacore SPR; pH 6.0 affinity (M^-1) over pH 7.4 steady state RU
rFcRn (rat) [21] = target: rFcRn (rat) (UniProt P13599); assay: BLI Octet screen, pH 6.0
Target sequence in this assay (P13599 23-298 limits assumed, form in doubt, chain 1 of 2): as the sequence (P13599 23-298 limits assumed, form in doubt, chain 1 of 2) above
Target sequence in this assay (P07151 21-119 limits assumed, form in doubt, chain 2 of 2, further chain): as the sequence (P07151 21-119 limits assumed, form in doubt, chain 2 of 2, further chain) above

[22] = target: biotinylated hFcRn (human) (UniProt P55899); assay: Biacore SPR, pH 6.0, bivalent fit
rFcRn (rat) [23] = target: rFcRn (rat) (UniProt P13599); assay: Biacore SPR, pH 6.0, bivalent fit
Target sequence in this assay (P13599 23-298, form in doubt, chain 1 of 2): as the sequence (P13599 23-298 limits assumed, form in doubt, chain 1 of 2) above
Target sequence in this assay (P07151 21-119, form in doubt, chain 2 of 2, further chain): as the sequence (P07151 21-119 limits assumed, form in doubt, chain 2 of 2, further chain) above

Human CD16a (FcγRIIIa) V158 with C-terminal HPC4 tag (human), sequence (P08637 17-208 F176V): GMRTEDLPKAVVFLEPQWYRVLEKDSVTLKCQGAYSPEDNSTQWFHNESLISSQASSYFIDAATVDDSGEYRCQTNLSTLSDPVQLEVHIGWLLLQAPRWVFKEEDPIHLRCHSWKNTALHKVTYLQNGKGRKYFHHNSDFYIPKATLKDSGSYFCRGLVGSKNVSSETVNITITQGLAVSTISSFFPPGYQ

Substance	koff [5] [s⁻¹]	Kd (rFcRn (rat) [6]) [nM]	koff (rFcRn (rat) [6]) [s⁻¹]	Steady State RU [7] [RU]	Steady State RU (rFcRn (rat) [8]) [RU]	Steady State RU [10] [RU]	koff (rFcRn (rat) [12]) [s⁻¹]	Steady State RU [13] [RU]	Steady State RU (rFcRn (rat) [14]) [RU]	Kd (rFcRn (rat) [15]) [nM]	kon [5] [M⁻¹ s⁻¹]	kon (rFcRn (rat) [6]) [M⁻¹ s⁻¹]	koff [9] [s⁻¹]	kon [9] [M⁻¹ s⁻¹]	FcγRIIIa V158 Affinity Fold Change (relative to WT) [16] [fold]	Kd [5] [nM]	other results
YTEKF benchmark (MST-HN variant; M252Y/S254T/T256E/H433K/N434F) (antibody)	–	–	–	–	–	–	–	–	–	–	–	–	–	–	–	–	Steady State RU (pH 7.4) [1]: 89.9 RU; Kd [2]: 14.8 nM; Kd [3]: 14.8 nM; pH 7.4 RU [4]: 89.9 RU
mAb1 M252Y/S254T/T256E (antibody)	0.045	18	0.00121	13.2	53.9	13.1	0.00066	13.2	53.9	–	–	–	–	–	–	–	Kd [9]: 342 nM; % reduction in binding response vs wild-type [11]: 50%
mAb1 M252Y/T256D (antibody)	–	5.86	–	9.7	56	–	–	–	–	5.9	–	–	–	–	–	–	–
mAb1 MDWY variant (T256D/T307W/N434Y) (antibody)	–	–	–	–	–	–	–	–	–	–	–	–	–	–	–	–	Ka [17]: 8.4e+07 M⁻¹; Ratio (pH 7.4/pH 6.0) [18]: 7.02e-07; Steady State Binding, pH 7.4 (RU) [19]: 59 RU; Kd [2]: 18.1 nM; Ratio (pH 6.0/pH 7.4) [20]: 1.42e+06; pH 7.4 RU [4]: 59.8 RU
mAb1 N434F (antibody)	0.05	26	0.00336	22.2	61.5	–	0.00118	20.1	54.9	–	354000	126000	–	350000	1.16	165	% enhanced binding vs WT [11]: 16 to 40%; fold slower off-rate vs WT (rFcRn (rat) [21]): > 2 fold; Kd [22]: 165 nM; koff [22]: 0.05 s⁻¹; kon [22]: 350000 M⁻¹ s⁻¹; Kd (rFcRn (rat) [23]): 26 nM; koff (rFcRn (rat) [23]): 0.0034 s⁻¹; kon (rFcRn (rat) [23]): 126000 M⁻¹ s⁻¹
mAb1 N434Y (antibody)	0.052	23	0.00346	25.5	66	–	0.00133	22.6	47	–	359000	145000	0.05	360000	1.41	137	% enhanced binding vs WT [11]: 16 to 40%; fold slower off-rate vs WT (rFcRn (rat) [21]): > 2 fold; Kd [22]: 137 nM; koff [22]: 0.05 s⁻¹; kon [22]: 360000 M⁻¹ s⁻¹; Kd (rFcRn (rat) [23]): 23 nM; koff (rFcRn (rat) [23]): 0.0035 s⁻¹; kon (rFcRn (rat) [23]): 145000 M⁻¹ s⁻¹
mAb1 T307A/E380A/N434A (antibody)	0.144	77	0.0117	–	–	13.1	0.00377	13.9	23.6	–	83700	157000	–	–	–	1780	–

Second part, led by results:

koff [5] [s⁻¹]	Kd (rFcRn (rat) [6]) [nM]	koff (rFcRn (rat) [6]) [s⁻¹]	Steady State RU [7] [RU]	Steady State RU (rFcRn (rat) [8]) [RU]	Steady State RU [10] [RU]	koff (rFcRn (rat) [12]) [s⁻¹]	Steady State RU [13] [RU]	Steady State RU (rFcRn (rat) [14]) [RU]	Kd (rFcRn (rat) [15]) [nM]	kon [5] [M⁻¹ s⁻¹]	kon (rFcRn (rat) [6]) [M⁻¹ s⁻¹]	koff [9] [s⁻¹]	kon [9] [M⁻¹ s⁻¹]	FcγRIIIa V158 Affinity Fold Change (relative to WT) [16] [fold]	Kd [5] [nM]	Substance	other results
0.052	74	0.00658	18.3	24.8	18.5	0.00338	18.3	24.8	–	193000	90800	0.5	19000	1.04	–	mAb1 M428L/N434S (antibody)	Kd [9]: 272 nM
0.0872	9.54	0.00127	10.7	39.1	–	–	–	–	9.5	376000	133000	0.87	38000	0.73	232	mAb1 T256D/T307Q (antibody)	–
0.0892	8.24	0.00129	12.2	42.1	–	–	–	–	8.2	529000	157000	0.89	53000	0.89	169	mAb1 T256D/T307W (antibody)	–
